Data published in US20200223906A1 (Adimab, published 2020).

Columns and labels:
[1] = target: RSV F protein of subtype A (strain A2) on recombinant mKate-RSV virus (Respiratory syncytial virus subtype A …, UniProt P03420 26-574); assay: cell-based or functional assay
[2] = target: RSV F protein of subtype B (18537) on recombinant mKate-RSV virus (Respiratory syncytial virus subtype B …, UniProt P13843 26-574); assay: cell-based or functional assay
[3] = target: T1, RSV F subtype A, furin-cleaved ectodomain stabilized in the prefusion conformation (DS-Cav1) (Respiratory syncytial virus subtype A, UniProt P03420 26-524); assay: BLI, IgG on AHQ sensor, 100 nM antigen
T1 construct: extracellular domain; Trimeric soluble antigen; also called Prefusion subtype A

[4] = target: T2, RSV F subtype B, furin-cleaved ectodomain stabilized in the prefusion conformation (DS-Cav1) (Respiratory syncytial virus subtype B); assay: BLI, IgG on AHQ sensor, 100 nM antigen
T2 construct: extracellular domain; Trimeric soluble antigen; also called Prefusion subtype B

B1: ADI-18967 (antibody, V domains shown)
VH: QVQLVQSGAEVKKPGASVKVACKVSGSSLTELSIQWVRLPPGKRLEWLGAFDAEDGAPIYSPKFQGRVTMTEDRSTETAYMEVTSLRSEDTALYYCATPLPAGALDKWGQGTLVTVSS
VL: DIQMTQSPSSLSASVGDRVTISCRASQTISRYLNWYQVKPGTAPKLLIYAASSLQTGVPSRFSASGSGADFTLTISSLQPEDFATYHCQQTYIIPYTFGQGTKVDIK
notes: full-length IgG from yeast; also called Antibody Number 315; Ab # 315
Neut IC50 (µg/ml) subtype A [1]: 6.74 µg/mL | Neut IC50 (µg/ml) subtype B [2]: 3.65 µg/mL | Kd [3]: 0.809 nM

B2: ADI-18932 (antibody, V domains shown)
VH: QVQLQESGPGLVRPSQTLSLTCSASGAAINSGDYYWSWIRQAPGRGLEWIGSISNRGVTDYNPSLKSRVIISADTSKNQFSLRLTSVTATDTAVYYCARDLGTLAFDPYYYYGIDVWGQGTTVTVSS
VL: DIRMTQSPATLSLSPGERATLSCRASQSVSRHLAWYQQKPGQAPRLLIYDASYRVTGVPDRFSGSGSGTDFTLTISSLESEDFAIYFCQQRSTWPTFGQGTKVEIK
notes: full-length IgG from yeast
Neut IC50 (µg/ml) subtype A [1]: 0.184 µg/mL | Neut IC50 (µg/ml) subtype B [2]: 0.351 µg/mL | Kd [3]: 0.917 nM | Kd [4]: 1.39 nM

B3: ADI-18935 (antibody, V domains shown)
VH: QVQLQESGPGLVKPSQTLSLTCTVSGRLLSSGDYYWSWIRQSPGRGLEWIGYVYHSGTTSYNPSLKSRITMTVDTSKNQFNLRLTSVTAADTAVYYCARDLGYSSSSPAFYYGIDFWGPGTMVTVSS
VL: EIVLTQSPATLSLSPGQRATLSCRASQSVGNYLAWYQQKPGQAPRLLIYDASNRVTGIPARFSGSGSGTDFTLTISRLESEDFAVYYCQQRSNGVLTFGGGTKVDIK
notes: full-length IgG from yeast
Neut IC50 (µg/ml) subtype A [1]: 0.779 µg/mL | Neut IC50 (µg/ml) subtype B [2]: 0.355 µg/mL | Kd [3]: 0.66 nM | Kd [4]: 0.582 nM

B4: ADI-18927 (antibody, V domains shown)
VH: QVQLVQSGAEVKKPGASVKVSCKASGYTFTDYFIHWVRQAPGEGLEWMGWVNPLSDNTKYSQKFQGRVTMSTDTSITTAYMYLSRLRFDDTAVYFCASQSSPYTPGALDVWGQGTTVTVSS
VL: DIQLTQSPSSLPASVGDRVTITCRASQNIGNNLAWYQQKAGRAPKLLIYSASNFHSGVPSRFIGSGSGTVFTLTISSLQPEDFATYFCQQSFTPQFTFGPGTKVEIK
notes: full-length IgG from yeast
Neut IC50 (µg/ml) subtype A [1]: 0.022 µg/mL | Neut IC50 (µg/ml) subtype B [2]: 0.067 µg/mL | Kd [3]: 3.58 nM | Kd [4]: 2.99 nM

B5: ADI-18928 (antibody, V domains shown)
VH: QVQLVQSGAEVKRPGSSVRVSCKASGGTFRKYAISWVRQARGQGLEWMGGIIPMSGPPSYAQKFQGRVTITADESTSTVYMELSSLRFEDTAVYFCARDIEWFVLMDPITSYYPMDVWGQGTTVTVSS
VL: QSVVTQEPSLTVSPGGTVTLTCGSSTGGVTSGHHTYWFQQKPGQAPRTLIYDTTNTHSWTPARFAGSLLGGKAALTLSGAQPEDEADYYCLLSYSGARPVFGGGTKLTVL
notes: full-length IgG from yeast
Neut IC50 (µg/ml) subtype A [1]: 0.034 µg/mL | Neut IC50 (µg/ml) subtype B [2]: 0.062 µg/mL | Kd [3]: 0.449 nM | Kd [4]: 0.515 nM

B6: ADI-18936 (antibody, V domains shown)
VH: EVQLLESGAEVKKPGASVRVSCKASGYTFTDYFMNWVRQAPGGGLEWMGWVNPLSGATKYAQKFQGRVTMTTDTSITTGYLDLRSLRVDDTAIYFCASQSSPYTPGAMGVWGQGTTVTVSS
VL: DIQVTQSPSSLSASVGDRVTITCRASQSISGYLSWYQQKPGKAPNLLIYATSNLYSGVPSRFSGRDSGTDFTLTITSLQPEDFATYFCQLNSGALFTFGPGTKVEIK
notes: full-length IgG from yeast
Neut IC50 (µg/ml) subtype A [1]: 0.032 µg/mL | Neut IC50 (µg/ml) subtype B [2]: 0.035 µg/mL | Kd [3]: 0.303 nM | Kd [4]: 0.298 nM

B7: ADI-18930 (antibody, V domains shown)
VH: QVQLVQSGAEVKKPGSSVKVSCKASGGTFSGYHISWVRQAPGQGLEWMGGIIHLFGTVNYAPKFQGRVTITADASTGTAYMELNSLMSEDTAVYYCARDAYEVWTGSYLPPFDYWGQGTLVTVSS
VL: EIVLTQSPGTLSLSPGERVTLSCRASQTVTSSYLAWYQQKPGQAPRLLIYGAFTRATDIPDRFSGSGSGTDFTLTISRLEPEDSAVYYCQQYGSSFLTFGGGTKVDIK
notes: full-length IgG from yeast
Neut IC50 (µg/ml) subtype A [1]: 0.013 µg/mL | Neut IC50 (µg/ml) subtype B [2]: 0.051 µg/mL | Kd [3]: 0.387 nM | Kd [4]: 0.372 nM

B8: ADI-18875 (antibody, V domains shown)
VH: QVQLQQWGAGLLKPSETLSLTCAVYGGSFSGYSWSWIRQTPGKGLEWIGEINHRGSTNYNPSLKSRVTMSVDTSQNQISLRVTSVTAADTAVYFCAGTNYGEVNTSNQYFFGMDVWGQGTTVTVSS
VL: DIQVTQSPSSLSASVGDRVTITCRASQSIGTYLNWYQQKPGKPPKLLIYAASNLESGVPSSFSGSGSGTHFTLTISSLQPEHFATYYCQQSYSTPLTFGGGTKVEIK
notes: full-length IgG from yeast; also called Antibody Number 232; Ab # 232
Neut IC50 (µg/ml) subtype A [1]: 0.04 µg/mL | Neut IC50 (µg/ml) subtype B [2]: 0.035 µg/mL | Kd [3]: 0.736 nM | Kd [4]: 0.764 nM

B9: ADI-18879 (antibody, V domains shown)
VH: EVQLLESGGEVKKPGASVKVSCRASGYTFRNYGLTWVRQAPGQGLEWMGWISAYNGNTNYAQKFQGRVTLTTDTSTSTAYMELRSLRSDDTAVYFCARDVPGHGAAFMDVWGTGTTVTVSS
VL: DIQLTQSPLSLPVTLGQPASISCRSSQSLEASDTNIYLSWFQQRPGQSPRRLIYKISNRDSGVPDRFSGSGSGTHFTLRISRVEADDVAVYYCMQGTHWPPAFGQGTKVDIK
notes: full-length IgG from yeast
Neut IC50 (µg/ml) subtype A [1]: 0.041 µg/mL | Neut IC50 (µg/ml) subtype B [2]: 0.103 µg/mL | Kd [3]: 0.312 nM | Kd [4]: 0.358 nM

B10: ADI-18903 (antibody, V domains shown)
VH: EVQLVESGGEVKKPGASVKVSCRASGYTFRNYGLTWVRQAPGQGLEWMGWISAYNGNTNYAQKFQGRVTLTTDTSTSTAYMELRSLRSDDTAVYFCARDVPGHGAAFMDVWGTGTTVTVSS
VL: ETTLTQSPLSLPVTLGQPASISCRSSQSLEASDTNIYLSWFQQRPGQSPRRLIYKISNRDSGVPDRFSGSGSGTHFTLRISRVEADDVAVYYCMQGTHWPPAFGQGTKLEIK
notes: full-length IgG from yeast
Neut IC50 (µg/ml) subtype A [1]: 0.036 µg/mL | Neut IC50 (µg/ml) subtype B [2]: 0.118 µg/mL | Kd [3]: 0.324 nM | Kd [4]: 0.272 nM

B11: ADI-18880 (antibody, V domains shown)
VH: QVQLVQSGSEVKKPGAAVKVSCKASGYIFANFGVSWVRQAPGQGLEWMGWISAYNGNTNYAQKFQGRVIMTTDTSTSTAYMELRSLRSDDTAVYYCARDPPAYAATLMDVWGKGTTVTVSS
VL: EIVLTQSPLSLPVTLGQSASISCRSSQSLEHSDTNTYLTWYQQRPGQSPRRLLYKVSNRDSGVPDRFSGSGSGTDFTLKISRVEAEDVGVYYCMQGTHWPPTFGQGTKVDIK
notes: full-length IgG from yeast
Neut IC50 (µg/ml) subtype A [1]: 0.041 µg/mL | Neut IC50 (µg/ml) subtype B [2]: 0.055 µg/mL | Kd [3]: 0.255 nM | Kd [4]: 0.304 nM

B12: ADI-18904 (antibody, V domains shown)
VH: EVQLVESGSEVKKPGAAVKVSCKASGYIFANFGVSWVRQAPGQGLEWMGWISAYNGNTNYAQKFQGRVIMTTDTSTSTAYMELRSLRSDDTAVYYCARDPPAYAATLMDVWGKGTTVTVSS
VL: DIVMTQSPLSLPVTLGQSASISCRSSQSLEHSDTNTYLTWYQQRPGQSPRRLLYKVSNRDSGVPDRFSGSGSGTDFTLKISRVEAEDVGVYYCMQGTHWPPTFGQGTKLEIK
notes: full-length IgG from yeast; also called Antibody Number 259; Ab # 259
Neut IC50 (µg/ml) subtype A [1]: 0.018 µg/mL | Neut IC50 (µg/ml) subtype B [2]: 0.089 µg/mL | Kd [3]: 0.251 nM | Kd [4]: 0.237 nM

B13: ADI-18921 (antibody, V domains shown)
VH: QVQLVQSGSEVKKPGASVRLSCKVAGYSLSELSMHWVRQSPGKGLEWLGAFDHEDAEAIYAPRFQGRITMTADTSTDTAYMELSSLRSEDTAVYYCATPTPVGATDYWGQGTLVTVSS
VL: DIQMTQSPSSLSASVGDRVTITCRASQSISSYLNWYQQKPGKAPKLLIYAASSLQRGGPSRFSGSGSGTDFTLTISSLQPEDFATYYCQQSYIIPYTFGQGTKVDIK
notes: full-length IgG from yeast
Neut IC50 (µg/ml) subtype A [1]: 1.7 µg/mL | Neut IC50 (µg/ml) subtype B [2]: 1.17 µg/mL | Kd [3]: 5.75 nM
